Assay results: US20210340516A1, “COMPOSITIONS CONTAINING ARGINASE 1 FOR THE TREATMENT OF NEUROVASCULAR AND RETINAL VASCULAR DISORDERS” (Augusta University Research Institute, Inc., priority 2020, published 2021)

Columns and labels:
[1] = test system: WT pups subjected to oxygen-induced retinopathy (OIR); assay: OIR mouse model: morphometric analysis of vaso-obliteration and neovascularization on lectin-labeled retinal flat mounts; format: in vivo
From the text: OIR mouse model: Wild type (WT) or heterozygous A1 knock out (A1^+/−) mice and their wild type (WT) littermates were subjected to oxygen induced retinopathy (OIR). Because deletion of both copies of A1 is lethal due to hyperammonemia, mice lacking 1 copy of A1 were used which is sufficient to dampen its activity (Zhang, et al., Am J Pathol, 175:891-902 (2009); Elms, et al., Diabetologia, 56:654-662 (2013); Patel, et al., Front Immunol, 4:173 (2014)). OIR was induced in newborn mice according to the protocol of Smith, et al. with some adjustments (Connor, et al., Nature Protocols, 4:1565-1573 (2009)). On P7 (postnatal day 7), mice were placed along with their dams in a hyperoxia (70% oxygen) chamber for up to 5 days, after which they were transferred back to room air on P12. The 70% oxygen concentration was used for experiments involving A1^+/− mice based on preliminary experiments showing intolerance of the A1^+/− mice to 75% oxygen treatment. Mice were sacrificed at various times and retinas were collected for analyses (FIG. 1A-1C). In all experiments, mice were compared to their littermate controls. Then data were pooled together to minimize variability between litters due to differences in litter size and weight gain (Kim, et al., Eye and Brain, 8:67-79 (2016)). These experiments were performed in accordance with the ARVO Statement for the Use of Animals in Ophthalmic and Vision Research, and were approved by the institutional animal care and use committee.
Analysis of vaso-obliteration and neovascularization: Eyeballs were fixed in 4% paraformaldehyde (PFA) overnight. Retina flat-mounts were dissected and then blocked and permeabilized in phosphate-buffered saline (PBS) containing 10% goat serum and 1% Triton X-100 (Sigma-Aldrich) for 30 minutes. Retinas were then immunolabeled with Alex594-labeled Griffonia simplicifolia isolectin B4 (1:200; Invitrogen, Carlsbad, Calif.) overnight at 4° C. Retinas were flat-mounted in mounting medium (Vectashield; Vector Laboratories, Burlingame, Calif.) and images were captured using fluorescence microscopy (Axioplan 2, Carl Zeiss Vision Inc.). Areas of central capillary dropout (vaso-obliteration, VO) and vitreoretinal neovascular tufts (neovascularization, NV) were quantified in a masked fashion using ImageJ software (NIH, Bethesda, Md.) (Connor, et al., Nature Protocols, 4:1565-1573 (2009); Patel, et al., Am J Pathol, 184:3040-3051 (2014)). High-magnification images were acquired to perform vessel sprouting analysis. Vessel sprouts were counted as previously described Patel, et al., Am J Pathol, 184:3040-3051 (2014)).
PBS was used as vehicle control. Pups were anesthetized before treatment by intraperitoneal (i.p.) injection of ketamine/xylazine mixture. Intravitreal injections were performed using a 36-gauge NanoFil needle mounted to a 10-μL Hamilton syringe (World Precision Instruments). Two treatment strategies were employed. […] The P9 time point was selected based on the fact that vaso-obliteration occurs within the first 48 hours of hyperoxia treatment (Connor, et al., Nature Protocols, 4:1565-1573 (2009); Lange, et al., Graefe's archive for clinical and experimental ophthalmology, 247:1205-1211 (2009); Gu, et al., Investigative ophthalmology & visual science, 43:496-502 (2002)).

[2] = test system: WT C57BL/6J mice subjected to retinal ischemia-reperfusion (IR) injury; assay: Retinal ischemia-reperfusion (IR) injury: neuronal survival by NeuN labeling of retinal flat-mounts; format: in vivo, mouse; conditions: 25 mg/kg i.p. at 3 hours and day 4, 7 days post-injury; vehicle group 40%
Procedure: Mouse retinal ischemia-reperfusion (IR) injury and traumatic optic neuropathy (TON) models: All experiments were performed in accordance with the ARVO Statement for the Use of Animals in Ophthalmic and Vision Research and were approved by the institutional animal care and use committee (Animal Welfare Assurance no. D16-00197). Wild-type (WT) C57BL/6J mice (10-12 weeks old) were anesthetized using ketamine/xylazine mixture then subjected to retinal ischemia-reperfusion (IR) injury or optic nerve crush (ONC) to model traumatic optic neuropathy (TON) as described in Shosha, et al., Cell death & disease, 7:e2483-e (2016) and Xu, et al., Frontiers in Neuroscience, 12:970 (2018). […]
Evaluation of retinal neurodegeneration: Retina flat-mounts and explants were immunolabeled for the neuronal marker, NeuN (Millipore), as previously described in Shosha, et al., Cell death & disease, 7:e2483-e (2016). Images were collected and analyzed in a blinded fashion using a semi-automated method. […] NeuN-positive cells were quantified using ImageJ software ‘Batch processing’ function. […] The macro was validated every time it was used to make sure it is compatible with the set of images being analyzed. […]

[3] = human, in vivo; cited from earlier work
[4] = previously reported (De Santo 2018); cited from earlier work
[5] = intravitreal 6.8 ng in 0.5 μL at P12, analysis at P17

B1: PEG-A1: recombinant human arginase (rhArg) covalently attached to methoxy polyethylene glycol (mPEG-SPA; MW 5,000) via succinamide propionic acid (SPA) linker (protein, UniProt P05089 1-322, looked up)
Arginase-1: MSAKSRTIGIIGAPFSKGQPRGGVEEGPTVLRKAGLLEKLKEQECDVKDYGDLPFADIPNDSPFQIVKNPRSVGKASEQLAGKVAEVKKNGRISLVLGGDHSLAIGSISGHARVHPDLGVIWVDAHTDINTPLTTTSGNLHGQPVSFLLKELKGKIPDVPGFSWVTPCISAKDIVYIGLRDVDPGEHYILKTLGIKYFSMTEVDRLGIGKVMEETLSYLLGRKKRPIHLSFDVDGLDPSFTPATGTPVVGGLTYREGLYITEEIYKTGLLSGLDIMEVNPSLGKTPEEVTRTVNTAVAITLACFGLAREGNHKPIDYLNPPK
modifications: mPEG-SPA 5 kDa conjugate
notes: recombinant human arginase (rhArg) covalently attached to methoxy polyethylene glycol (mPEG-SPA; MW 5,000) via succinamide propionic acid (SPA) linker
hyperoxia-induced vaso-obliteration (capillary dropout area) ([1]; intravitreal 6.8 ng in 0.5 μL at P7, hyperoxia, P9): does not affect | avascular area [1, 5]: avascular area was reduced | endothelial tip cells (vessel sprouts) per field of view [1, 5]: two-fold increase | neovascular tufts (pathological neovascularization) [1, 5]: reduced neovascular tufts | lectin-positive vitreal macrophages after OIR ([1]; intravitreal PEG-A1, vs vehicle): increased | neuronal survival after retinal IR (NeuN, % of sham retina) [2]: 62% | safety and tolerability in humans [3]: safe and well-tolerated | CNS penetration [4]: poor CNS penetration
